In publication PMC10085991:

How the values were obtained:
[1] = target: β2 adrenergic receptor 148C-378C (min-C-β2AR with N148C and native C378) (human) (UniProt P07550); experiment: FRET or BRET; single-molecule FRET (TIRF), receptor immobilised by FLAG/M1 Fab; titration of Gs^GDP with 100 μM isoproterenol and 20 μM cmpd-6 (positive allosteric modulator); 25 °C
[2] = target: β2 adrenergic receptor 148C-378C (min-C-β2AR with N148C and native C378) (human) (UniProt P07550); experiment: FRET or BRET; single-molecule FRET (TIRF), receptor immobilised by FLAG/M1 Fab; titration of Gs^GDP with 100 μM isoproterenol and 20 μM cmpd-15 (negative allosteric modulator); 25 °C
[3] = target: β2 adrenergic receptor 148C-378C (min-C-β2AR with N148C and native C378) (human) (UniProt P07550); experiment: FRET or BRET; single-molecule FRET (TIRF) between labels at 148C and 378C of the receptor; receptor immobilised by N-terminal FLAG on biotinylated M1 Fab; Gs^GDP 3.16 nM to 10 μM in solution; 200 μM isoproterenol; 25 °C; 50 mM HEPES pH 7.5, 100 mM NaCl, 5 mM MgCl2, 5 mM CaCl2, 0.01% MNG, 0.001% CHS; apparent EC50 of low-FRET occupancy

Substance: Gs heterotrimer (human Gαs, rat Gβ1, bovine Gγ2) (from UniProt P63092 1-394; P54311 1-340; P63212 1-71) (complex)
- EC50 [1]: 0.026 µM
- EC50 [2]: 0.35 µM
- EC50 [3]: 0.1 µM
- high-FRET dwell time, plateau at high Gs concentration [3]: 2 s
